Laboratory results as given in article PMC4937676 (Asia Oceania Journal of Nuclear Medicine and Biology, 2016).
Read-outs that look alike come from different tables or passages of the source.

Key:
[1] = Biodistribution in Syrian rats after intravenous injection; settings: male Syrian rats; for Percentage of injected dose per gram (%ID/g), Blood / Percentage of injected dose per gram (%ID/g), Bone / Percentage of injected dose per gram (%ID/g), Intestine / Percentage of injected dose per gram (%ID/g), Kidneys / Percentage of injected dose per gram (%ID/g), Liver / Percentage of injected dose per gram (%ID/g), Spleen / Percentage of injected dose per gram (%ID/g), Stomach: 5.55 MBq i.v. tail vein, mean ± SD, n = 4
Experimental: (§1) The total amount of radioactivity injected in each animal was measured by counting the 1 mL syringe before and after the injection in a dose calibrator with fixed geometry. The biodistribution of the solution among tissues was determined by sacrificing four rats at each selected time interval (15, 30, 60 and 120 min) after injection, based on animal care protocols.
(§2) Blood samples were rapidly taken after animal sacrifice. The tissues (heart, kidneys, spleen, stomach, intestine, lung, liver, skin, bone, muscle, thyroid, adrenal glands, salivary gland and pancreas) were weighed and rinsed with normal saline and their activities were determined, using a p-type coaxial HPGe detector, coupled with a multi-channel analyzer, based on Equation 1 ([20]):
(§3) The percentage of the injected dose per gram (%ID/g) for different organs was calculated by dividing the amount of activity in each tissue (A) to the decay-corrected injected activity and the mass of each organ. Four rats were sacrificed at each time interval. All values were expressed as mean ± standard deviation and the data were compared, using student’s t-test.

in vivo = settings: male, Syrian, rat, iv, 5.55 MBq, total radioactivity, Percentage of injected dose per gram (%ID/g)
Experimental: as §1, §2, §3

[2] = cited from earlier work
Experimental: In this regard, in a study by Ugur et al., the absorbed dose of kidneys was calculated to be 1090 mGy/MBq, based on biodistribution studies on AR42J rat pancreatic tumors ([2]), whereas an absorbed dose of 0.082 mGy/MBq was reported in kidneys of patients with disseminated neuroendocrine tumors ([37]). However, the absorbed dose of the pancreas as a somatostatin receptor-positive organ was not evaluated in previous research. || As mentioned earlier, the dose delivered to the pancreas has not been evaluated in previous literature. […] On the other hand, the absorbed dose of adrenal glands was somewhat lower than the value reported in the mentioned study, while being in great accordance with the absorbed dose of liver after ^68Ga-DOTATATE injection (0.015 mGy/MBq) in a study by Walker et al. ([41]). || In the present study, the effective absorbed dose was calculated at 0.026 mSv/MBq, which was higher than the value reported by Sandstrom and colleagues (0.021 mSv/MBq). The lower effective absorbed dose in the mentioned study corresponded to lower organ consideration for dosimetric calculations, compared to the present study. Finally, the dose received by critical organs was well within the acceptable range for diagnostic nuclear medicine procedures ([31], [42]).

[3] = parameters: species or system human
Experimental: The accumulated source activity for each animal organ was calculated according to Equation 4, where A (t) is the activity of each organ at time t: For this purpose, data points representing the non-decay corrected percentage of the injected dose were created. A linear approximation was applied between the two experimental points of time. The curves were extrapolated to infinity by fitting the tail of each curve to a mono-exponential curve with an exponential coefficient equal to the physical decay constant of ^68Ga. The accumulated activity in animals was calculated by computing the area under the curves, extrapolated to the accumulated activity in human organs, using a method proposed by Sparks et al. (Equation 5) and the standard mean weight of each human organ ([21], [22], [23]): The absorbed dose in human organs was calculated by the Radiation Absorbed Dose Assessment Resource (RADAR) formalism, based on the biodistribution data in rats ([22]): In the equation above, ni is the number of radiations with energy E emitted per nuclear transition, Ei is the energy per radiation (MeV), Qi is the fraction of emitted energy absorbed by the target, m is the mass of the target region (kg) and k is the proportionality constant [drawing 8] DF represents the physical decay characteristics of the radionuclide, the range of emitted radiations and the organ size and configuration, expressed in mGy/MBq.s ([24]). In this study, DF values were obtained from OLINDA/EXM software ([22]). The effective absorbed dose in each organ was calculated, using the following formula: […] where HT is the equivalent absorbed dose in each organ and WT is the tissue-weighing factor, which represents a subjective balance between different stochastic health risks ([25]). WT was obtained from the International Commission on Radiological Protection (ICRP) publication 103 ([26]).

[4] = 5.55 MBq i.v., maximum over 15-120 min, time not stated

[Cl][68Ga]([Cl])[Cl] [^68GaCl3]
Percentage of injected dose per gram (%ID/g), Blood ([1]; 15 min after injection): 3.18±0.17 %ID/g
Percentage of injected dose per gram (%ID/g), Bone ([1]; 15 min after injection): 0.56±0.06 %ID/g
Percentage of injected dose per gram (%ID/g), Intestine ([1]; 15 min after injection): 0.71±0.06 %ID/g
Percentage of injected dose per gram (%ID/g), Kidneys ([1]; 15 min after injection): 0.70±0.09 %ID/g
Percentage of injected dose per gram (%ID/g), Liver ([1]; 15 min after injection): 0.91±0.02 %ID/g
Percentage of injected dose per gram (%ID/g), Spleen ([1]; 15 min after injection): 0.51±0.09 %ID/g
Percentage of injected dose per gram (%ID/g), Stomach ([1]; 15 min after injection): 0.41±0.11 %ID/g
Percentage of injected dose per gram (%ID/g), Blood ([1]; 30 min after injection): 2.98±0.12 %ID/g
Percentage of injected dose per gram (%ID/g), Bone ([1]; 30 min after injection): 0.91±0.10 %ID/g
Percentage of injected dose per gram (%ID/g), Intestine ([1]; 30 min after injection): 0.82±0.08 %ID/g
Percentage of injected dose per gram (%ID/g), Kidneys ([1]; 30 min after injection): 0.41±0.10 %ID/g
Percentage of injected dose per gram (%ID/g), Liver ([1]; 30 min after injection): 1.50±0.12 %ID/g
Percentage of injected dose per gram (%ID/g), Spleen ([1]; 30 min after injection): 0.70±0.06 %ID/g
Percentage of injected dose per gram (%ID/g), Stomach ([1]; 30 min after injection): 0.56±0.07 %ID/g
Percentage of injected dose per gram (%ID/g), Blood ([1]; 60 min after injection): 2.53±0.11 %ID/g
Percentage of injected dose per gram (%ID/g), Bone ([1]; 60 min after injection): 1.20±0.11 %ID/g
Percentage of injected dose per gram (%ID/g), Intestine ([1]; 60 min after injection): 0.89±0.05 %ID/g
Percentage of injected dose per gram (%ID/g), Kidneys ([1]; 60 min after injection): 1.42±0.12 %ID/g
Percentage of injected dose per gram (%ID/g), Liver ([1]; 60 min after injection): 0.78±0.08 %ID/g
Percentage of injected dose per gram (%ID/g), Spleen ([1]; 60 min after injection): 1.03±0.10 %ID/g
Percentage of injected dose per gram (%ID/g), Stomach ([1]; 60 min after injection): 1.21±0.09 %ID/g
Percentage of injected dose per gram (%ID/g), Blood ([1]; 120 min after injection): 2.44±0.14 %ID/g
Percentage of injected dose per gram (%ID/g), Bone ([1]; 120 min after injection): 1.05±0.09 %ID/g
Percentage of injected dose per gram (%ID/g), Intestine ([1]; 120 min after injection): 0.61±0.07 %ID/g
Percentage of injected dose per gram (%ID/g), Kidneys ([1]; 120 min after injection): 0.91±0.08 %ID/g
Percentage of injected dose per gram (%ID/g), Liver ([1]; 120 min after injection): 0.60±0.05 %ID/g
Percentage of injected dose per gram (%ID/g), Spleen ([1]; 120 min after injection): 1.43±0.12 %ID/g
Percentage of injected dose per gram (%ID/g), Stomach ([1]; 120 min after injection): 1.54±0.14 %ID/g
Activity content in the bone, maximum value [1, 4]: 1.20 %ID/g
Activity content in the stomach, maximum value [1, 4]: 1.54 %ID/g

C[C@@H](O)[C@@H]1NC(=O)[C@H](CCCCN)NC(=O)[C@@H](Cc2c[nH]c3ccccc23)NC(=O)[C@H](Cc2ccc(O)cc2)NC(=O)[C@@H](NC(=O)[C@@H](Cc2ccccc2)NC(=O)CN2CCN(CC(=O)O)CCN(CC(=O)O)CCN(CC(=O)O)CC2)CSSC[C@@H](C(=O)N[C@H](CO)[C@@H](C)O)NC1=O [^68Ga-DOTATOC, Gallium-68 DOTA-DPhe^1-Tyr^3-Octreotide, metal not drawn]
tissue uptake at 0.25 h (in vivo; Adrenal): 0.91 ± 0.05 %ID/g
tissue uptake at 0.5 h (in vivo; Adrenal): 0.75 ± 0.06 %ID/g
tissue uptake at 1 h (in vivo; Adrenal): 0.6 ± 0.04 %ID/g
tissue uptake at 2 h (in vivo; Adrenal): 0.44 ± 0.01 %ID/g
tissue uptake at 0.25 h (in vivo; Blood): 4.51 ± 0.21 %ID/g
tissue uptake at 0.5 h (in vivo; Blood): 1.98 ± 0.15 %ID/g
tissue uptake at 1 h (in vivo; Blood): 1.53 ± 0.11 %ID/g
tissue uptake at 0.25 h (in vivo; Bone): 0.95 ± 0.08 %ID/g
tissue uptake at 0.5 h (in vivo; Bone): 0.58 ± 0.03 %ID/g
tissue uptake at 2 h (in vivo; Bone): 0.05 %ID/g
tissue uptake at 0.25 h (in vivo; Heart): 1.68 ± 0.08 %ID/g
tissue uptake at 0.5 h (in vivo; Heart): 1.01 ± 0.07 %ID/g
tissue uptake at 1 h (in vivo; Heart): 0.73 ± 0.07 %ID/g
tissue uptake at 2 h (in vivo; Heart): 0.03 %ID/g
tissue uptake at 0.25 h (in vivo; Intestine): 0.48 ± 0.06 %ID/g
tissue uptake at 0.5 h (in vivo; Intestine): 0.56 ± 0.05 %ID/g
tissue uptake at 1 h (in vivo; Intestine): 0.39 ± 0.04 %ID/g
tissue uptake at 2 h (in vivo; Intestine): 0.38 ± 0.04 %ID/g
tissue uptake at 0.25 h (in vivo; Kidneys): 11.9 ± 0.21 %ID/g
tissue uptake at 0.5 h (in vivo; Kidneys): 8.99 ± 0.13 %ID/g
tissue uptake at 1 h (in vivo; Kidneys): 8 ± 0.18 %ID/g
tissue uptake at 2 h (in vivo; Kidneys): 2.51 ± 0.1 %ID/g
tissue uptake at 0.25 h (in vivo; Liver): 0.79 ± 0.09 %ID/g
tissue uptake at 0.5 h (in vivo; Liver): 0.58 ± 0.08 %ID/g
tissue uptake at 1 h (in vivo; Liver): 0.46 ± 0.03 %ID/g
tissue uptake at 2 h (in vivo; Liver): 0.2 %ID/g
tissue uptake at 0.25 h (in vivo; Lung): 0.35 ± 0.06 %ID/g
tissue uptake at 1 h (in vivo; Lung): 0.13 ± 0.01 %ID/g
tissue uptake at 2 h (in vivo; Lung): 0.02 %ID/g
tissue uptake at 0.25 h (in vivo; Muscle): 0.4 ± 0.05 %ID/g
tissue uptake at 2 h (in vivo; Muscle): 0.02 %ID/g
tissue uptake at 0.25 h (in vivo; Pancreas): 12.8 ± 0.28 %ID/g
tissue uptake at 0.5 h (in vivo; Pancreas): 9.55 ± 0.18 %ID/g
tissue uptake at 1 h (in vivo; Pancreas): 6.62 ± 0.22 %ID/g
tissue uptake at 2 h (in vivo; Pancreas): 5.31 ± 0.15 %ID/g
tissue uptake at 0.25 h (in vivo; Salivary gland): 1.22 ± 0.1 %ID/g
tissue uptake at 0.5 h (in vivo; Salivary gland): 0.77 ± 0.04 %ID/g
tissue uptake at 1 h (in vivo; Salivary gland): 0.54 ± 0.03 %ID/g
tissue uptake at 1 h (in vivo; Skin): 0.08 %ID/g
tissue uptake at 2 h (in vivo; Skin): 0.03 %ID/g
tissue uptake at 0.25 h (in vivo; Spleen): 0.38 ± 0.04 %ID/g
tissue uptake at 0.5 h (in vivo; Spleen): 0.93 ± 0.07 %ID/g
tissue uptake at 1 h (in vivo; Spleen): 0.16 ± 0.02 %ID/g
tissue uptake at 2 h (in vivo; Stomach): 0.17 ± 0.02 %ID/g
tissue uptake at 1 h (in vivo; Thyroid): 0.16 ± 0.04 %ID/g
Absorbed dose of kidneys [2]: 0.082 mGy/MBq
Effective absorbed dose [2]: 0.021 mSv/MBq
Effective absorbed dose [3]: 0.026 mSv/MBq
Equivalent absorbed dose in humans, Adrenals [3]: 0.010 mGy/MBq
Equivalent absorbed dose in humans, Bone Surf [3]: 0.008 mGy/MBq
Equivalent absorbed dose in humans, Heart [3]: 0.004 mGy/MBq
Equivalent absorbed dose in humans, Kidneys [3]: 0.074 mGy/MBq
Equivalent absorbed dose in humans, Liver [3]: 0.010 mGy/MBq
Equivalent absorbed dose in humans, Lungs [3]: 0.001 mGy/MBq
Equivalent absorbed dose in humans, Red Marrow [3]: 0.003 mGy/MBq
Equivalent absorbed dose in humans, Small Intestine [3]: 0.008 mGy/MBq
Equivalent absorbed dose in humans, Spleen [3]: 0.009 mGy/MBq
Equivalent absorbed dose in humans, Stomach [3]: 0.003 mGy/MBq
Equivalent absorbed dose in humans, Total Body [3]: 0.008 mGy/MBq
